According to a protein production outcome set (Wang et al. 2014):

experiment: label from the status in PepcDB records

Row | Sequence | protein production
1 | MKFGETFDMVLSDVRGKKIHASVKREHLNRFERLIVPGEWRAIENFGLTYATGQFKATDHRYKMGFMAQTRVVRIDPLSDSYFLSLTAFNDVLNGGLNQNYLIDVVGQIVNVGEMETIDVHNQPTKKIDFELRDQKDERLPCTLWGSFAEQVFTACEAANGEMIICLVRFAKLKTYKDVRSISNAFNTSQILINPDLPEILEFKDALPKDCLALTLIESKPKSKIDEFPTGDFYLQFAKKTIKEVSEMFDVGRVKVLCTIYDIDRDWSWYYIVCKKCNKKVTKVVMTSLKAQLWCETCRAPITNVLARYKLHVKVMDSSGEMKLMLFDAMSSEIVGCPANNLLDGSFDEIEDPDILPDSIKNLIGKTYQYLVCVENENKRYQMHDSIDQCSLMLTYSEEPSEATTPSSKRSSDTSISPADNFSTTKKLCLDSIKIVKIKQEMVEKNNEAKVVGEKLNF | failed
2 | MKFGKRHYRPQVDQMDCGVASLAMVFGYYGSYYFLAHLRELAKTTMDGTTALGLVKVAEEIGFETRAIKADMTLFDLPDLTFPFVAHVLKEGKLLHYYVVTGQDKDSIHIADPDPGVKLTKLPRERFEEEWTGVTLFMAPSPD | not failed
3 | MKFKNILFDFDDTLVDFYDAEKKAFYNLAQKYNHQPTQQDFEHFKKVNQAHWEAFQQNKLTKDEVLSQRFINYFNDYQIHVNGKEADKCFRAELAMAPVKLFDHTLEVIQQLKLNHSLYIVTNGVTETQLRRIAQTQFNEIFQDVFISEKAGFQKPMTEFFDFVFEHIGENNRNQTLIVGDSLTSDILGGKNANISTCWFNIRQKENHTSIQPDYIINDLSEMIRIVE | failed
4 | MKFLGRGRELARFKEELDAARPSLVILYGRRRVGKSRFLRELGKSRKEIYFQATRVSSLLNLEQFKIEVANILGALPVLESLPSWEGVFYYIAEHTRNNPGLLITIDEFPYLLDGDPALPSILQKFWDSGAPADGGLKLILCGSSISQMQDLLAERNPLYGRQTLSLDMKQLPLTDVARFFPKYDAEAIISTYAIFGGIPHYLQLFNPDVPLKDNVVRLLLTETGTLVDEPNTLLQTELHEPGFYSSVLAAIADGCNTTSEIASRLGVKVEKITSYAAKLVALHLISNTKSLDVDEKVRNRRFRLDDSLISFWHRFVRPSLTAISGGFGEEVYRQVVAPGFSEYMGIAFEAIALEYARIHIQEKLGLPAKELGQIWGHSDFDIDVAGRLLNGEYFYGDCKWTNADIDMGHLRQLRERSERTRYGRGTAGKHFLLFSKAGFSTDLIVFAKDETRRVHLLTPNDLVRPNQ | failed
5 | MKFLTVSDDMNFLRQVNTLVAGKGDMDSVIIGEGDAKGLGSKVLYRAKKGTPFDAVSEGILKIAGNYDYIAIGSTEVGREIAGYLSFKTGFYTATEIFSLEFNGQKAHTKRFFYGGKTVIEEESDARILTVAPGVIEAKDLGTTPEIRDLEIGQSRIKITKFV | not failed
6 | MKFLVGYSNDSSGKDALKLGVALAEMTQGKLIVCHIVAKTWHNIALAKFDEDYDQFLCDEAQKALDDAKLAVPSHIEARYIARTALSISEGLKQTAKELSVDCMVISGARIAIKGQFFSGTVADELLNQLSLPVALAPKGFAKNQGFTSPLTRLSCAVSGSDQSCNLAISAGEWAEIFNVPLRFVTFAVRDRDITPTAAGFDAENMVINEWREQIEAEYAQATQHWESDVPISLEIGDGPTWKESIQSIDWQASELLIVGTTTSGIFKQVLVGKNAEKIIRYASVPRLVLPRSTD | failed
7 | MKFRRHTKAIRSLAGSLISHASAFAPALFAAIIAAIVVWVATNWRLERSLADERSVVAGELATISSRLQTNLNSNVKLLQGLAAGIAVDPAMGQNRFSKLAAQILQPDSQLRSFAAAPDMVVQWVYPETGNEKAIGLDYRKNEKQRAAAMLARNTHNIVLTGPVELVQGGTAFVVRCPVYIDDGNSQIFWGLLSGIIDIPRLYRDSGLGSTDLEIAISTTPEPNSPKQVFFGGLETFEKKPVVASVDMTYGRWSLAALPRHGWGQNNGIGTFELYASLLALCVVAPIVWVGFLTKSRQKTIEKLRLHKSKLVRARQRLEHLSLHDALTGLPNRRFVDQMISQPPRPDPQDRLILIHIDLDRFKEINDTKGHAGGDMVLQTTASRLADLTGPNDVAARIGGDEFVFASWSTDPEPKAAELARQIVDALQQTIFIDGAGYVVGASVGVAWETESARDRDLGQLLLNADLALYEAKKAGRGRAAVFTEELRSAAIHAKELADEFNQALERDELVAFFQPQFNANTLDIAGVEALARWDHPRKGLLGPNAFLDAAEKLGRSGDMDRLILQKALFELTRWDGLGMHIPRVSVNISARRLAQANLLAELSALPAAKDRLCFELLETISFDELQPALNEVIPAIKALGIEIEIDDFGTEHASIVSLLRFEPRRLKIDREIIKPIIASPSQRRLVSSIIEIGRSQNIDIVAEGVETMEHAKILKDLGCHLLQGYALARPMSSDQLIEFCRMKGTGTAKASR | failed
8 | MKFSKLADQVWGEEPDDQVRSFVFMSNLDAQETANTMDVSVSVERIHADLCGNTELASELHYTPDEWDEAQGWVKINYPLIDDTASASLDVVLDATFQPLPGQPFEGEALTLIDALLHHAENVAASNPWKRTTFHTAHMHPPGSNADCDYCLVLQRRGYVKAHEEIQQTIPLPSGDWSAGEFTVVDVEGTAFPSALIPSIVELQHRAALDVPHGNLSVAPAQWDEHRLAQQSERILKTGTKLFTVLFAEGSTVAAMSSIAIPPGSNPDIAEQGLTIVHPDFRGRGLGTAVKLAGLSLLSRCHPEIQRVATSNAVDNHAMLAINRSIGATEIARTTLWEKKL | failed
9 | MKFVHSETHRRHDPQFFIVRGQITRSTEQPERADRLLAAAQRRGHERVEARDFGEAILAEVHCPRYLDFLKNGYAQWRALPGASQEITPHVHPPREESGYPVSIIGRAGFHIADTSSPMGPHTWEAALAASHSACTAAQLVIEGAPAAYSLSRPPGHHATRDRAGGFCFLNHTAVAAQWLRHHVARVAILDVDVHHGNGTQDIFYERDDVLHVSLHADPAYFYPFFTGYAQETGRGIGAGCNLNLPLPIGTDDEAFLAALRIACRRVLDFKPDVVVVALGLDTYEGDPLNAFRITTPGFARIGQAIAGLALPTVLVQEGGYLSDELGENLATFLDGFCQHHRPTATLR | failed
10 | MKFVKIALIVAVVAIALFAAKQTGILEIITDIKSLQDWIASFGVWGYAVFVAAFVFACVFLLPGSAFTIVAGIVFGPIKGGILALFSATLGAVAAFIVARFLLRNTIMKKFGDNPIFKKIDDGVAANGTSFLILTRLVPVFPFSLQNYAYGLTSLNLGTYALVSLLTMAPGAFIFAYMAGDIATNGVSVMLLVKFAVAGLVLFGMSLIPKYIAKKKGINMEELAK | failed
11 | MKFYKKLIECIILLLFFVVFTLFIKYYFKPFLSIVILTILCSPIYNLLSKHKVFGDRINAVLSIIVINVMIFLAIFLIGNFIAQKLNIYLQHYHNVLDINKLPIIGESNVNILLNKINVFVDKLFNADFFKKSAVYTTDGILTYFVSIMSVYFILVDKYDIVNLAEKLFTKNKVHILMKKFSDIKSLLRVETFLVLITTIQTIIGFFVLGIEDCFMLGIICGILDILPYVGTIIIFIPLIIYKMYEKNYVTIFGLIALYIFLQVSRQIMETNFMSSKLKIHPLIILISVYIGIKAFGIIGLFIAPIYVITAKEIILSS | failed
12 | MKGFAMLGINKLGWIEKERPVAGSYDAIVRPLAVSPCTSDIHTVFEGALGDRKNMILGHEAVGEVVEVGSEVKDFKPGDRVIVPCTTPDWRSLEVQAGFQQHSNGMLAGWKFSNFKDGVFGEYFHVNDADMNLAILPKDMPLENAVMITDMMTSGFHGAELADIQMGSSVVVIGIGAVGLMGIAGAKLRGAGRIIGVGSRPICVEAAKFYGATDILNYKNGHIVDQVMKLTNGEGVDRVIMAGGGSETLSQAVSMVKPGGIISNINYHGSGDALLIPRVEWGCGMAHKTIKGGLCPGGRLMKGFAMLGINKLGWIEKERPVAGSYDAIVRPLAVSPCTSDIHTVFEGALGDRKNMILGHEAVGEVVEVGSEVKDFKPGDRVIVPCTTPDWRSLEVQAGFQQHSNGMLAGWKFSNFKDGVFGEYFHVNDADMNLAILPKDMPLENAVMITDMMTSGFHGAELADIQMGSSVVVIGIGAVGLMGIAGAKLRGAGRIIGVGSRPICVEAAKFYGATDILNYKNGHIVDQVMKLTNGEGVDRVIMAGGGSETLSQAVSMVKPGGIISNINYHGSGDALLIPRVEWGCGMAHKTIKGGLCPGGRLRAEMLRDMVVYNRVDLSKLVTHVYHGFDHIEEALLLMKDKPKDLIKAVVIL | not failed
